Test results from the supplement of paper PMC10219994.
± gives the standard deviation of the averaged measurements.

B1: library; a variant is named by its letters at N, in order (parent)
chain: GAGACCGCAACTGAAAAGTTGTGGNNNNNATAGTGAGTCGCTGCCTGCAAAGACACAACT

Variants of: B1
Test: ligation selection enrichment (abundance after / before one-round selection) (fold); higher = more template-directed ligation activity
Conditions: with T7Psub CACGGAUGCUAAUACGACUCACUAUA; MgCl2 25 mM; 42 °C; 4 h; pH 8.5
Method in brief: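 In each of two independent experiments, 6 μM RNA substrate was reacted for 4 h at 42 °C with 0.75 μM of a T7-transcribed RNA ligase library randomized at five core positions, in buffer containing 50 mM EPPS pH 8.5 and 25 mM MgCl2. Only reads scoring ≥30 in quality at all randomized positions were counted after MiSeq sequencing. Each enrichment value is the ratio of abundance after ligation to abundance before ligation.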

Row | Variant | ligation selection enrichment
1 | TGTGG | 0.196 ± 0.025
2 | TCGTA | 0.31 ± 0.074
3 | CACGG | 0.242 ± 0.057
4 | CACGT | 0.156 ± 0.046
5 | CACGC | 0.163 ± 0.014
6 | CACGA | 0.471 ± 0.005
7 | CTGTA | 0.136 ± 0.0097
8 | CTGTG | 0.195 ± 0.072
9 | GGATA | 0.432 ± 0.027
10 | CTCTG | 0.298 ± 0.058
11 | CTCTT | 0.133 ± 0.075
12 | TTGGA | 0.294 ± 0.0019
13 | CGAAA | 0.31 ± 0.015
14 | CGAAT | 2.11 ± 0.22
15 | ATGGT | 0.181 ± 0.092
16 | ATGGA | 0.662 ± 0.029
17 | CCCTA | 0.186 ± 0.0061
18 | CATAA | 0.159 ± 0.023
19 | CATAC | 0.183 ± 0.029
20 | CAGGA | 0.231 ± 0.013
21 | GGTAG | 1.05 ± 0.028
22 | GGTAT | 5.34 ± 1.2
23 | GTAGG | 0.422 ± 0.043
24 | GTAGA | 1.05 ± 0.13

Row | Variant | ligation selection enrichment
25 | TGTTT | 0.468 ± 0.2
26 | TGTTC | 0.147 ± 0.071
27 | GATCA | 0.464 ± 0.032
28 | ATTGC | 0.765 ± 0.2
29 | ATTGA | 6.7 ± 0.45
30 | AGGGA | 0.322 ± 0.059
31 | GATTT | 0.577 ± 0.15
32 | GATTC | 0.183 ± 0.0076
33 | GAACG | 0.626 ± 0.017
34 | GAACT | 0.882 ± 0.31
35 | TGAAG | 0.271 ± 0.03
36 | AATCT | 0.451 ± 0.12
37 | CGGCG | 0.328 ± 0.1
38 | CGGCA | 0.177 ± 0.036
39 | CGACC | 0.239 ± 0.071
40 | CGACA | 0.411 ± 0.093
41 | TATGT | 0.135 ± 0.031
42 | GCCGG | 0.313 ± 0.024
43 | GAGCG | 0.68 ± 0.023
44 | GAGCA | 0.241 ± 0.082
45 | GGCCG | 0.746 ± 0.042
46 | GGCCC | 0.192 ± 0.0055
47 | ATACC | 0.169 ± 0.016
48 | GACAT | 0.499 ± 0.025

Row | Variant | ligation selection enrichment
49 | GACAC | 0.176 ± 0.0093
50 | GACAG | 0.419 ± 0.07
51 | GGCGG | 0.252 ± 0.022
52 | GGCGT | 0.168 ± 0.023
53 | TCGCG | 0.485 ± 0.036
54 | CGATT | 4.38 ± 0.59
55 | AAAGG | 0.44 ± 0.026
56 | GCCCT | 0.424 ± 0.17
57 | ATCGG | 0.801 ± 0.021
58 | ATCGC | 0.48 ± 0.024
59 | GTCAT | 0.373 ± 0.0027
60 | GGTTT | 0.452 ± 0.082
61 | TACAC | 0.139 ± 0.042
62 | TACAG | 0.393 ± 0.092
63 | TACAA | 0.211 ± 0.08
64 | CCTCA | 0.348 ± 0.055
65 | CCTCC | 0.347 ± 0.0045
66 | CCTCT | 0.266 ± 0.11
67 | AACTC | 0.0963 ± 0.052
68 | CATGA | 0.381 ± 0.068
69 | TTACG | 0.5128 ± 0.0029
70 | TTACA | 0.193 ± 0.00088
71 | TCCGT | 0.123 ± 0.096
72 | TCCGG | 0.133 ± 0.0031

Row | Variant | ligation selection enrichment
73 | GTTAA | 0.876 ± 0.12
74 | GGACA | 0.256 ± 0.046
75 | GGACT | 0.703 ± 0.31
76 | ACGGT | 0.169 ± 0.025
77 | ACTTA | 0.172 ± 0.0078
78 | GGGGC | 0.21 ± 0.0028
79 | ACTCT | 0.248 ± 0.12
80 | ACTCG | 0.535 ± 0.046
81 | ACTCA | 0.217 ± 0.031
82 | GGTCA | 0.9187 ± 0.002
83 | TACCC | 0.202 ± 0.003
84 | TACGG | 0.379 ± 0.026
85 | GTCTG | 0.554 ± 0.068
86 | TTCAG | 0.375 ± 0.049
87 | GCACC | 0.153 ± 0.024
88 | GCACT | 0.555 ± 0.18
89 | TGGGA | 0.263 ± 0.038
90 | TGGGC | 0.171 ± 0.022
91 | AGTAG | 1.697 ± 0.012
92 | AGTAA | 0.427 ± 0.042
93 | GCGGC | 0.103 ± 0.017
94 | TGCCA | 0.144 ± 0.028
95 | CTAGG | 0.212 ± 0.06
96 | CTAGT | 0.209 ± 0.029

Row | Variant | ligation selection enrichment
97 | TATAT | 0.817 ± 0.18
98 | ACATG | 0.333 ± 0.015
99 | ACATT | 0.209 ± 0.099
100 | TAGAA | 0.484 ± 0.075
101 | TCGGA | 0.233 ± 0.022
102 | TCGGT | 0.115 ± 0.0078
103 | TCGGG | 0.41 ± 0.01
104 | GTTCC | 0.33 ± 0.069
105 | GATAC | 0.188 ± 0.058
106 | GATAG | 0.538 ± 0.016
107 | GCTTC | 0.176 ± 0.038
108 | GCAAG | 0.562 ± 0.043
109 | TTGAA | 1.56 ± 0.22
110 | TTGTA | 0.685 ± 0.11
111 | AACGA | 0.673 ± 0.067
112 | AACGG | 0.32 ± 0.045
113 | CAGTA | 0.14 ± 0.0029
114 | CGCTA | 0.127 ± 0.032
115 | CGCTT | 0.126 ± 0.017
116 | AGCAT | 3.55 ± 0.68
117 | AGCAC | 0.319 ± 0.037
118 | GTACA | 0.288 ± 0.094
119 | GTACG | 1.47 ± 0.055
120 | GTACC | 0.165 ± 0.011

Row | Variant | ligation selection enrichment
121 | ACTGT | 0.13 ± 0.074
122 | GCATA | 0.204 ± 0.0065
123 | ACACA | 0.134 ± 0.024
124 | ACGCC | 0.153 ± 0.035
125 | GAATA | 0.175 ± 0.0089
126 | GAATC | 0.205 ± 0.079
127 | GTGCT | 0.813 ± 0.23
128 | GAGGG | 0.345 ± 0.011
129 | TCATT | 0.327 ± 0.04
130 | TCATC | 0.166 ± 0.002
131 | GCGAA | 1.35 ± 0.24
132 | AATAT | 0.299 ± 0.032
133 | AATAA | 0.179 ± 0.049
134 | ACAGA | 0.307 ± 0.022
135 | ACAGG | 0.217 ± 0.025
136 | CCGGG | 0.244 ± 0.014
137 | CCTGG | 0.381 ± 0.061
138 | CCTGT | 0.138 ± 0.07
139 | CCTAA | 0.148 ± 0.0065
140 | TAGTT | 0.218 ± 0.078
141 | TAGTG | 0.6007 ± 0.0042
142 | TAACA | 0.186 ± 0.043
143 | TAACG | 0.8672 ± 0.0053
144 | TAACC | 0.173 ± 0.011

Row | Variant | ligation selection enrichment
145 | TTTAA | 0.18 ± 0.0051
146 | TTTAG | 0.504 ± 0.034
147 | TTTAC | 0.218 ± 0.013
148 | CAACG | 0.449 ± 0.066
149 | CAACA | 0.1345 ± 0.00036
150 | TCCTT | 0.232 ± 0.029
151 | TCCTA | 0.147 ± 0.063
152 | AGTCC | 0.157 ± 0.034
153 | GTGTG | 0.75 ± 0.1
154 | CCGCA | 0.206 ± 0.0029
155 | CTCGT | 0.216 ± 0.13
156 | CGCGA | 1.1 ± 0.18
157 | CGCGT | 0.237 ± 0.0082
158 | TCAAC | 0.48 ± 0.05
159 | TCAAA | 0.317 ± 0.039
160 | TTTGG | 0.466 ± 0.024
161 | TTTGT | 0.164 ± 0.11
162 | GGAAT | 2.23 ± 0.17
163 | GCGCA | 0.289 ± 0.025
164 | AGGTG | 0.279 ± 0.036
165 | AGGTA | 0.41 ± 0.019
166 | AGGTT | 0.245 ± 0.075
167 | GTGGG | 0.31 ± 0.013
